Assay results as given in publication PMC6804253, “Predicting and Experimentally Validating Hot-Spot Residues at Protein–Protein Interfaces” (ACS Chemical Biology, 2019).
Read-outs that look alike come from different tables or passages of the source.

B1: 1EMV LA33A (protein, UniProt P13479 1-86, looked up, variant L33A)
Colicin-E9 immunity protein: MELKHSISDYTEAEFLQLVTTICNADTSSEEEAVKLVTHFEEMTEHPSGSDLIYYPKEGDDDSPSGIVNTVKQWRAANGKSGFKQG
B2: 1EMV YA54A (protein, UniProt P13479 1-86, looked up, variant Y54A)
Colicin-E9 immunity protein: MELKHSISDYTEAEFLQLVTTICNADTSSEEELVKLVTHFEEMTEHPSGSDLIAYPKEGDDDSPSGIVNTVKQWRAANGKSGFKQG
B3: 1EMV IA53A (protein, UniProt P13479 1-86, looked up, variant I53A)
Colicin-E9 immunity protein: MELKHSISDYTEAEFLQLVTTICNADTSSEEELVKLVTHFEEMTEHPSGSDLAYYPKEGDDDSPSGIVNTVKQWRAANGKSGFKQG
B4: 1EMV VA68A (protein, UniProt P13479 1-86, looked up, variant V68A)
Colicin-E9 immunity protein: MELKHSISDYTEAEFLQLVTTICNADTSSEEELVKLVTHFEEMTEHPSGSDLIYYPKEGDDDSPSGIANTVKQWRAANGKSGFKQG
B5: 1EMV VA34A (protein, UniProt P13479 1-86, looked up, variant V34A)
Colicin-E9 immunity protein: MELKHSISDYTEAEFLQLVTTICNADTSSEEELAKLVTHFEEMTEHPSGSDLIYYPKEGDDDSPSGIVNTVKQWRAANGKSGFKQG
B6: 1EMV YA55A (protein, UniProt P13479 1-86, looked up, variant Y55A)
Colicin-E9 immunity protein: MELKHSISDYTEAEFLQLVTTICNADTSSEEELVKLVTHFEEMTEHPSGSDLIYAPKEGDDDSPSGIVNTVKQWRAANGKSGFKQG
B7: 1DFJ WI257A (protein, UniProt P10775 1-456, looked up, variant W257A)
Ribonuclease inhibitor: MNLDIHCEQLSDARWTELLPLLQQYEVVRLDDCGLTEEHCKDIGSALRANPSLTELCLRTNELGDAGVHLVLQGLQSPTCKIQKLSLQNCSLTEAGCGVLPSTLRSLPTLRELHLSDNPLGDAGLRLLCEGLLDPQCHLEKLQLEYCRLTAASCEPLASVLRATRALKELTVSNNDIGEAGARVLGQGLADSACQLETLRLENCGLTPANCKDLCGIVASQASLRELDLGSNGLGDAGIAELCPGLLSPASRLKTLALWECDITASGCRDLCRVLQAKETLKELSLAGNKLGDEGARLLCESLLQPGCQLESLWVKSCSLTAACCQHVSLMLTQNKHLLELQLSSNKLGDSGIQELCQALSQPGTTLRVLCLGDCEVTNSGCSSLASLLLANRSLRELDLSNNCVGDPGVLQLLGSLEQPGCALEQLVLYDTYWTEEVEDRLQALEGSKPGLRVIS
B8: 1DFJ YI433A (protein, UniProt P10775 1-456, looked up, variant Y433A)
Ribonuclease inhibitor: MNLDIHCEQLSDARWTELLPLLQQYEVVRLDDCGLTEEHCKDIGSALRANPSLTELCLRTNELGDAGVHLVLQGLQSPTCKIQKLSLQNCSLTEAGCGVLPSTLRSLPTLRELHLSDNPLGDAGLRLLCEGLLDPQCHLEKLQLEYCRLTAASCEPLASVLRATRALKELTVSNNDIGEAGARVLGQGLADSACQLETLRLENCGLTPANCKDLCGIVASQASLRELDLGSNGLGDAGIAELCPGLLSPASRLKTLWLWECDITASGCRDLCRVLQAKETLKELSLAGNKLGDEGARLLCESLLQPGCQLESLWVKSCSLTAACCQHVSLMLTQNKHLLELQLSSNKLGDSGIQELCQALSQPGTTLRVLCLGDCEVTNSGCSSLASLLLANRSLRELDLSNNCVGDPGVLQLLGSLEQPGCALEQLVLYDTAWTEEVEDRLQALEGSKPGLRVIS
B9: 1DFJ II455A (protein, UniProt P10775 1-456, looked up, variant I455A)
Ribonuclease inhibitor: MNLDIHCEQLSDARWTELLPLLQQYEVVRLDDCGLTEEHCKDIGSALRANPSLTELCLRTNELGDAGVHLVLQGLQSPTCKIQKLSLQNCSLTEAGCGVLPSTLRSLPTLRELHLSDNPLGDAGLRLLCEGLLDPQCHLEKLQLEYCRLTAASCEPLASVLRATRALKELTVSNNDIGEAGARVLGQGLADSACQLETLRLENCGLTPANCKDLCGIVASQASLRELDLGSNGLGDAGIAELCPGLLSPASRLKTLWLWECDITASGCRDLCRVLQAKETLKELSLAGNKLGDEGARLLCESLLQPGCQLESLWVKSCSLTAACCQHVSLMLTQNKHLLELQLSSNKLGDSGIQELCQALSQPGTTLRVLCLGDCEVTNSGCSSLASLLLANRSLRELDLSNNCVGDPGVLQLLGSLEQPGCALEQLVLYDTYWTEEVEDRLQALEGSKPGLRVAS
B10: 1DFJ YI430A (protein, UniProt P10775 1-456, looked up, variant Y430A)
Ribonuclease inhibitor: MNLDIHCEQLSDARWTELLPLLQQYEVVRLDDCGLTEEHCKDIGSALRANPSLTELCLRTNELGDAGVHLVLQGLQSPTCKIQKLSLQNCSLTEAGCGVLPSTLRSLPTLRELHLSDNPLGDAGLRLLCEGLLDPQCHLEKLQLEYCRLTAASCEPLASVLRATRALKELTVSNNDIGEAGARVLGQGLADSACQLETLRLENCGLTPANCKDLCGIVASQASLRELDLGSNGLGDAGIAELCPGLLSPASRLKTLWLWECDITASGCRDLCRVLQAKETLKELSLAGNKLGDEGARLLCESLLQPGCQLESLWVKSCSLTAACCQHVSLMLTQNKHLLELQLSSNKLGDSGIQELCQALSQPGTTLRVLCLGDCEVTNSGCSSLASLLLANRSLRELDLSNNCVGDPGVLQLLGSLEQPGCALEQLVLADTYWTEEVEDRLQALEGSKPGLRVIS
B11: 1IAR IA5A (protein, UniProt P05112 25-153, looked up, variant I5A)
Interleukin-4: HKCDATLQEIIKTLNSLTEQKTLCTELTVTDIFAASKNTTEKETFCRAATVLRQFYSHHEKDTRCLGATAQQFHRHKQLIRFLKRLDRNLWGLAGLNSCPVKEANQSTLENFLERLKTIMREKYSKCSS
B12: 1IAR FA82A (protein, UniProt P05112 25-153, looked up, variant F82A)
Interleukin-4: HKCDITLQEIIKTLNSLTEQKTLCTELTVTDIFAASKNTTEKETFCRAATVLRQFYSHHEKDTRCLGATAQQFHRHKQLIRALKRLDRNLWGLAGLNSCPVKEANQSTLENFLERLKTIMREKYSKCSS
B13: 1IAR IA11A (protein, UniProt P05112 25-153, looked up, variant I11A)
Interleukin-4: HKCDITLQEIAKTLNSLTEQKTLCTELTVTDIFAASKNTTEKETFCRAATVLRQFYSHHEKDTRCLGATAQQFHRHKQLIRFLKRLDRNLWGLAGLNSCPVKEANQSTLENFLERLKTIMREKYSKCSS

Tests used:
[1] = tested on: PPIs of the SKEMPI data set (by PDBID); experiment: SKEMPI experimental ΔΔG, single mutations to alanine; type: binding; settings: for sk_class (class of SKEMPI experimental ΔΔG): class by ΔΔG threshold 4.184 kJ/mol, ref SKEMPI; for sk_class: class of the SKEMPI experimental ΔΔG
[2] = tested on: PPIs of the SKEMPI data set (by PDBID); settings: single mutation to alanine, sheet sortedByGroup, r_group FAMILYVW, ref SKEMPI, cited from earlier work

Row | Molecule | sk_class (class of SKEMPI experimental ΔΔG) [1] | sk_ddG_kJ (SKEMPI experimental ΔΔG) ([2]; PPI given by PDBID) [kJ] | sk_class [1] | sk_ddG_kJ (SKEMPI experimental ΔΔG) [2] [kJ]
1 | B1 | Positive (positive (a hot residue) ΔΔG ≥ 4.184 kJ/mol) | 14.31 | – | –
2 | B2 | Positive (positive (a hot residue) ΔΔG ≥ 4.184 kJ/mol) | 20.21 | – | –
3 | B3 | Neutral (neutral (little effect) 4.184 kJ/mol < ΔΔG > −4.184 kJ/mol) | 3.56 | – | –
4 | B4 | Positive (positive (a hot residue) ΔΔG ≥ 4.184 kJ/mol) | 7.78 | – | –
5 | B5 | Positive (positive (a hot residue) ΔΔG ≥ 4.184 kJ/mol) | 10.79 | – | –
6 | B6 | Positive (positive (a hot residue) ΔΔG ≥ 4.184 kJ/mol) | 19.41 | – | –
7 | B7 | – | – | Positive (positive (a hot residue) ΔΔG ≥ 4.184 kJ/mol) | 5.56
8 | B8 | – | – | Positive (positive (a hot residue) ΔΔG ≥ 4.184 kJ/mol) | 10.96
9 | B9 | – | – | Neutral (neutral (little effect) 4.184 kJ/mol < ΔΔG > −4.184 kJ/mol) | 1.38
10 | B10 | – | – | Positive (positive (a hot residue) ΔΔG ≥ 4.184 kJ/mol) | 24.89
11 | B11 | Positive (positive (a hot residue) ΔΔG ≥ 4.184 kJ/mol) | 4.90 | – | –
12 | B12 | Neutral (neutral (little effect) 4.184 kJ/mol < ΔΔG > −4.184 kJ/mol) | -0.38 | – | –
13 | B13 | Neutral (neutral (little effect) 4.184 kJ/mol < ΔΔG > −4.184 kJ/mol) | 0.29 | – | –
